Results as given in publication doi:10.1101/2020.04.21.053124.

Molecular target: MVI Spring bZip (1-914) (UniProt Q9UM54)
Assay: SEC

“MVI Spring bZip (1-914) (from UniProt Q9UM54 1-914)” showed a stoichiometry N of 2.
